Data from patent US20230303715A1.

Columns and labels:
Experiment in all cases: SPR Biacore, Ab on HER2 chip
FcγRI = FcγRI (UniProt P12314)
FcγRIIaH = FcγRIIaH (UniProt P12318)
FcγRIIaR = FcγRIIaR (UniProt P12318)
FcγRIIb = FcγRIIb (UniProt P31994)
FcγRIIb, sequence (P31994 43-217 limits assumed): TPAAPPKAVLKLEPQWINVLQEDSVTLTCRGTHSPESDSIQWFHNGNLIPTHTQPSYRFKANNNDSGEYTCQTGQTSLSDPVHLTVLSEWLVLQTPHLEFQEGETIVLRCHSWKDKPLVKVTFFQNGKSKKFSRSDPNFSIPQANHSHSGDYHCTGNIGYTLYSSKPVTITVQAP

FcγRIIaR, sequence (P12318 34-217 H167R limits assumed): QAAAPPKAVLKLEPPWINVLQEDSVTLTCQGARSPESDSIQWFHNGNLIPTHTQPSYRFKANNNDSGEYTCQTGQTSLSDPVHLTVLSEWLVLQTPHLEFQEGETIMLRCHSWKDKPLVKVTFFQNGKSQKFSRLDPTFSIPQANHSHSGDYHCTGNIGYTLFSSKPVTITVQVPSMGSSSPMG
FcγRI, sequence (P12314 16-292 limits assumed): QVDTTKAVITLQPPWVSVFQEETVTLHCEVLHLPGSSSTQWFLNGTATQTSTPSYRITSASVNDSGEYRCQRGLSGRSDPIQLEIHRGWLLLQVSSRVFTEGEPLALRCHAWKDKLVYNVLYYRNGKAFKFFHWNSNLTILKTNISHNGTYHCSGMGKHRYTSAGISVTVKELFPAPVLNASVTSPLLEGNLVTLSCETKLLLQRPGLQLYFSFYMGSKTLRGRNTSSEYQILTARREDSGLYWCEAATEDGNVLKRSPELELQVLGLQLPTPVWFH
FcγRIIaH, sequence (P12318 34-217 limits assumed): as the sequence (P12318 34-217 H167R limits assumed) above, with R134H counted along it

B1: one-armed trastuzumab antibody, Scaffold 9, variant v27319 (L242C_I336C/V308I) (antibody, part only; not given: Trastuzumab Fab arm, not shown: another chain or arm of the molecule)
Fc 1: APEFLNGPSVFCFPPKPKDTLMISRTPEVTCVVVDVSQEDPEVKFNWYVDGVEVHNAKTKPREEQYNSTYRVVSVLTILHQDWLNGKEYKCKVSNKGLPKSIEKTCSKAKGQPREPQVYVYPPSRDELTKNQVSLTCLVKGFYPSDIAVEWESNGQPENNYKTTPPVLDSDGSFALVSKLTVDKSRWQQGNVFSCSVMHEALHNHYTQKSLSLSPGK
Fc 2: APELLDGPDVFCFPPKPKDTLMISRTPEVTCVVVDLADEDPEVKFNWYVDGVEVHNAKTKPREEQYNSTYRVVSVLTILHQDWLNGKEYKCKVSNKALPAPIEKTCSKAKGQPREPQVYVLPPSRDELTKNQVSLLCLVKGFYPSDIAVEWESNGQPENNYLTWPPVLDSDGSFFLYSKLTVDKSRWQQGNVFSCSVMHEALHNHYTQKSLSLSPGK
modifications: Engineered intrachain disulphide C242-C336 in each Fc chain.
With B1 the Kd (FcγRI) was 0.532 nM, the Kd (FcγRIIaH) was 575 nM and the Kd (FcγRIIaR) was 61.4 nM. The Kd (FcγRIIb) was 15.5 nM.
